Results taken from publication PMC12446771, “Proximity-dependent proteomics and network analysis of adenylyl cyclase isoforms 5, 6, and 9 in cardiomyocytes” (The Journal of Biological Chemistry, 2025).

Biological target: the molecule itself
Assay: immunogold EM spatial mapping (univariate Ripley's K-function); intact apical plasma membrane sheets of BHK cells expressing AC5-YFP or AC6-RFP, 4.5 nm gold on anti-YFP or anti-RFP, TEM at 100,000×

B1: AC5-YFP (enzyme)
chain: not shown
notes: adenylyl cyclase type 5; printed as AC5-YFP in the results and YFP-AC5 in the methods; also called YFP-AC5; source: BHK cells, transfected, on intact apical plasma membrane sheets
stoichiometry N: 2
